The values that follow come from patent US20210347908A1 (ELPISCIENCE SUZHOU BIOPHARMA, published 2021).

Assay [1] has as its target T1, Fc tagged human SIRPα v1 ECD recombinant protein (human, UniProt P78324 31-370).
T1 construct: range 1-370; cloned range M1-R370 includes the signal peptide; also called hSIRPα V1; not shown: human IgG Fc region (hFc) of the pCPC vector
Kind of assay: ELISA. As to the method:
(§1) Binding specificity of the purified hybridoma antibodies against SIRP family members was detected by ELISA assay using recombinant proteins of Fc tagged human SIRPα v1 ECD, human SIRPα v2 ECD, human SIRPβ ECD and human SIRPγ ECD. Briefly the antibodies were incubated with ELISA microplate coated antigens at 37° C. for 1 hour. After washing, horseradish peroxidase (HRP) labeled anti-mouse or anti-human IgG 2nd Ab (Sigma) was added and incubated at 37° C. for 1 hour. Then, 100 μl/well of TMB solution (Biotechnology) was added. After incubation for 15 minutes at room temperature, the reaction was stopped by the addition of 50 μl of 1N HCl. OD 450 nm was read and EC₅₀ was calculated. Other than 060 and HEFLB, all of the antibodies as tested can bind with both human SIRPα v1 and SIRPα v2. 060 and HEFLB can bind with human SIRPα v1 but not v2. Other than 055, all of the antibodies as tested can bind with human SIRPβ. In comparison with other known anti-SIRPα antibodies, only 022, 035 and 050 can bind with human SIRPγ weakly.
(§2) The purified chimeric antibodies were applied for binding specificity analysis and species cross reactivity analysis (refer to methods described in Example 3.3 and 3.4). FIGS. 1A to 1D show binding specificity of anti-SIRPα chimeric antibodies against recombinant proteins of human SIRPα v1 ECD (A), human SIRPα v2 ECD (B), human SIRPβ ECD (C) and human SIRPγ ECD (D) as measured by ELISA analysis.
Background: In an ELISA, binding on a coated surface is turned into a signal by an enzyme label.

In assay [2] the target is T2, full length human SIRPα v1 stably expressed on CHOK1 cells (human, UniProt P78324 31-504).
T2 construct: whole, on cells; also called CHOK1-human SIRPα v1-1B4 cells; CHOK1-human SIRPα v1
The experiment in a line: FACS on CHOK1 cells. As to the method: (§3) Species cross reactivity of the purified hybridoma antibodies against human, cyno and mouse SIRPα was determined by FACS assay using CHOK1-human SIRPα v1-1B4 cells, CHOK1-cyno SIRPα-2A2 cells, and CHOK1-C57BL/6 mouse SIRPα-2.22 cells, which stably expressing SIRPα protein. Briefly the antibodies were incubated with 2×10⁵ target cells at 4° C. for 1 hour. After washing, fluorescence labeled anti-mouse or anti-human IgG 2nd antibody (Life Technologies) was added and incubated at 4° C. for 1 hour. Geometric median fluorescence intensity was detected and EC₅₀ was calculated. In particular, it is noted, in contrast to the other antibodies tested in the same experiment, 060 cannot bind with cyno SIRPα and 035 has cross reactivity against C57BL/6 mouse SIRPα.
as §2

In assay [3] the target is T3, full length C57BL/6 mouse SIRPα stably expressed on CHOK1 cells (mouse (C57BL/6), UniProt P97797 32-513).
T3 construct: whole, on cells; also called CHOK1-C57BL/6 mouse SIRPα-2.22 cells
T3 sequence (looked up): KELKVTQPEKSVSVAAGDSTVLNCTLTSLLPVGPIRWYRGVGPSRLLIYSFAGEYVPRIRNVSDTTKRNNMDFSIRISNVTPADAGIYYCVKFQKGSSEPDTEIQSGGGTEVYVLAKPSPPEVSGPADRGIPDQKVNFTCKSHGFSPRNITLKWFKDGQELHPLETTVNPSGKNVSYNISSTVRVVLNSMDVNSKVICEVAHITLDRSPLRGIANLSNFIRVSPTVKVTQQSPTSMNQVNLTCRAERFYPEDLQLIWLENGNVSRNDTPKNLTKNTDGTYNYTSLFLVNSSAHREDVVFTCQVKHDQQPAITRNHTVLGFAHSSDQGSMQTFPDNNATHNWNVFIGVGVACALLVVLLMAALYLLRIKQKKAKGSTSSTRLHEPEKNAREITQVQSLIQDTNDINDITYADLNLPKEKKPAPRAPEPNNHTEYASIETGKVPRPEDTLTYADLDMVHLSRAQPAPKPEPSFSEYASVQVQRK
Kind of assay: FACS on CHOK1 cells. As to the method: as §3, §2

In assay [4] the target is T2, full length human SIRPα v1 stably …. Kind of assay: FACS on CHOK1 cells. As to the method:
as §3, with “SIRPα. […]” for “SIRPα.”
The source holds these as a separate data set.

Assay [5] concerns the target T1, Fc tagged human SIRPα v1 ECD …. Kind of assay: ELISA. As to the method:
as §1, §2
This is another data set of the same source.

In assay [6] the target is T2, full length human SIRPα v1 stably …. Kind of assay: FACS on CHOK1 cells. The source holds these as a separate data set.
In assay [7] the target is T4, biotin labeled soluble human SIRPα v1 ECD recombinant protein (human, UniProt P78324 31-373, biotin labeled).
T4 construct: extracellular domain
The experiment in a line: competitive ELISA; competitor 035. On the procedure: (§4) Competitive ELISA assay was used for epitope binning of 9 functional antibodies. Briefly excessive competitor antibody and biotin labeled soluble human SIRPα v1 ECD recombinant protein were co-incubated with ELISA microplate coated antibody. After washing, HRP-SA was added and incubated at 37° C. for 1 hour. Then, […] of TMB solution (Biotechnology) was added. After incubation for 15 minutes at room temperature, the reaction was stopped by the addition of […] of 1N HCl. OD 450 nm was read. Competition ratio was calculated. The antibodies that can compete each other for binding to SIRPα have the similar binding epitope.

Assay [8] deals with T4, biotin labeled soluble human SIRPα v1 …. Kind of assay: competitive ELISA; competitor 001. On the procedure: as §4
Assay [9] shares this target. Kind of assay: competitive ELISA; competitor 002. On the procedure: as §4
Assay [10] deals with T1, Fc tagged human SIRPα v1 ECD …. The experiment in a line: ELISA. As to the method: as §1
This is another data set of the same source.

Where two headings read alike, the source gives them in different places.

B1: chimeric antibody 055c (antibody, V domains shown)
VH: EVKLVESEGGLVQPGDSMKLSCTASGFTFSDYFMTWIRQVPEKGLEWIANVNYDGRSTYYLDSLKSRFIISRDNANNILYLQMSSLKSEDTATYYCAREGSQTPLYAVDYWGQGTSVTVSS
VL: DIVMTQSQKFMSTTVGDRVNITCKASQNVGTAVAWYQQKPGQSPKLLIYLASNRYTGVPDRFTGSGSGTDFTLTVSDMRSEDLADYFCQQYSIYPFTFGSGTKLEIK
One may read the EC50 as the concentration that produces a half-maximal response. For B1, the EC50 in assay [1] worked out at 0.11 nM; in [2], 3.4 nM; in assay [4], 3.4 nM; in assay [5] it was 0.11 nM. The binding result in assay [3] is reported as “no binding (tested: 10 nM)”.

B2: chimeric antibody 032c (antibody, V domains shown)
VH: EVRLEESGGGLVQPGGSMKLSCVVSGFTFRNYWMNWVRQSPERGLEWIAEITLKSNTYATHYAESVKGRFAISRDDSKSSFYLQMNDLRPEDTGIYYCTTFTKVVADWHLDVWGAGTTVTVSS
VL: DVLMTQTPLSLPVNLGDQASISCRSSQNIVHSNGNTYLEWYLQKPGQSPKLLIYKVSNRFSGVPDRFSGSGSGTDFTLRISRVEAEDLGVYYCFQGSHVPFTFGSGTKLEIK
With B2, the EC50 in [1] amounted to 0.12 nM; in [2] it was 3 nM; in assay [4], 3 nM; in [5] it was 0.12 nM. For the same molecule, the binding result in assay [3] was “no binding (tested: 10 nM)”.

B3: chimeric antibody 035c (antibody, V domains shown)
VH: QIQLVQSGPELRKPGETVKISCKASGYSFTNYAMNWVKQAPGKVLKWMGFINTYTGEPTYADDFKGRFAFSLETSASTAYLQINNLKNEDTATYFCTRTRGYYDFDGGAFDYWGQGTSLTVSS
VL: DIVMTQSQKFMSTSIGDRVSVTCKASQNVGTHLAWYQQKPGQSPKALIFSASYRYIGVPDRFTGSGSGTDFTLTITNVQSEDLAEYFCQQYNTYPLTFGAGTKLELK
For the molecule B3, the EC50 was 0.08 nM in assay [1]; 1.3 nM in assay [2]; 1.3 nM in assay [4]; 0.08 nM in [5]; 1.5 nM in assay [6]. Besides, in assay [3], the “MFI at 10 nM” value came out at 13400 MFI.

B4: chimeric antibody 060c (antibody, V domains shown)
VH: QVQLKESGPGLVAPSESLSITCTVSGFSLTNYDISWIRQSPGKGLEWLGVIWTGGDTNFNSAFMSRLSISKDKSKSQVFLKLNSLQTDDTAIYYCVRVQYFGGSYGPMDYWGQGISVTVSS
VL: DIQMTQASSYLSVSLGGRVTITCEASDHINDWLAWYQQTPGNAPRLLISGATSLETGVPSRFSGSGSGKDYTLSITSLQTEDIATYYCQQYWNTPLTFGAGTRLELK
Take B4: the EC50 was 0.08 nM in [1], 2.8 nM in [2], 2.8 nM in [4] and 0.08 nM in assay [5]. Also, the binding result in assay [3] is reported as “no binding (tested: 10 nM)”.

B5: chimeric antibody 050c (antibody, V domains shown)
VH: QIQLVQSGPELKKPGETVKISCKASGYTFTHYSMHWVKQAPGKGLKWMGWINTETAEPTYVDDFKGRFAFSLEASASTAFFQINNLKNEDTATYFCARGGLRQGDYWGQGTTLTVSS
VL: QIVLTQSPPIMSASPGEKVTLTCSATSSVSASYLYWFQQKPGSSPKLWIYSTSNLASGVPARFSGSGSGTSYSLTISNMEPADAASYFCHQWSSYPYTFGGGTKLEIK
Take B5: the EC50 worked out at 0.11 nM in [1], 2.4 nM in assay [2], 2.4 nM in assay [4] and 0.11 nM in assay [5]. Also, the binding result in [3] is given as “no binding (tested: 10 nM)”.

B6: reference antibody KWAR23 (antibody, V domains shown)
VH: EVQLQQSGAELVKPGASVKLSCTASGFNIKDYYIHWVQQRTEQGLEWIGRIDPEDGETKYAPKFQDKATITADTSSNTAYLHLSSLTSEDTAVYYCARWGAYWGQGTLVTVSS
VL: QIVLTQSPAIMSASPGEKVTLTCSASSSVSSSYLYWYQQKPGSSPKLWIYSTSNLASGVPARFSGSGSGTSYSLTISSMEAEDAASYFCHQWSSYPRTFGAGTKLELK
For B6, the “% Competition” value in [7] is 4%; in [8], 85%; in assay [9], 49%. The EC50 amounted to 0.1 nM in assay [1]; 2.8 nM in assay [2]; 0.17 nM in assay [10]; 2.8 nM in assay [4]; 0.1 nM in assay [5]; 2.8 nM in [6]. In [3], the binding result is given as “no binding (tested: 10 nM)”.

B7: chimeric antibody 074c (antibody, V domains shown)
VH: QVQLQQPRAELVKPGASVMLSCKASGYTFSSYWIHWVRQGPGQGLEWIGLIHPNSGNTDCSETFKNKATLTVDTSSSTAYMQLSSLASEDSAVYYCARDGASYDWFVHWGQGTLVTVSA
VL: not shown
For B7, the EC50 in assay [1] worked out at 0.14 nM; in [2], 5.5 nM; in assay [4], 5.5 nM; in assay [5], 0.14 nM. For the same molecule, the binding result in assay [3] is on record as “no binding (tested: 10 nM)”.

B8: chimeric antibody 022c (antibody, V domains shown)
VH: QIQLVQSGPELKKPGETVKISCKASGYTFTDYAMHWVKQAPGKGLKWMGWKNTETGESTYAEDFKGRFAFFLETSASTAYLQINNVKNEDTATYFCARGGYGSNYVMDYWGQGTSVIVSS
VL: DIQMTQSSSSFSVSLGDRVTITCKASEDIYNRLAWYQQKPGNAPRLLISGATSLETGVPSRFSGSGSGKDYTLSITSLQTEDVATYYCQQYWNSPRTFGGGTKLEIK
Consider B8, for which the EC50 in assay [1] amounted to 0.11 nM; in assay [2] it was 1.7 nM; in assay [4], 1.7 nM; in assay [5] it was 0.11 nM. In addition, the binding result in assay [3] is on record as “no binding (tested: 10 nM)”.
